Legend:
[1] = target: T1, cynomolgus tissue factor on HEK293T-cynoTF cells (cynomolgus monkey, UniProt P13726 33-294 (human entry)); test: flow cytometry on HEK293T-cynoTF cells, one-site fit of MFI
T1 construct: stably transfected HEK293T cells
T1 chain: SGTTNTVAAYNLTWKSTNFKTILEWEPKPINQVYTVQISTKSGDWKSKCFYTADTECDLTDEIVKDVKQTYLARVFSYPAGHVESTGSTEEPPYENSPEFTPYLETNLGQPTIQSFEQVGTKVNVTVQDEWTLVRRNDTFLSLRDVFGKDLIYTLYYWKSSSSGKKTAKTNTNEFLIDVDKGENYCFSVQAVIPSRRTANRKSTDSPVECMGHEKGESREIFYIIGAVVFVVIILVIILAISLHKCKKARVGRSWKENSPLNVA
Excerpt: (§1) HEK293T, BxPC3 cells (TF positive) and NCI-H1703 (TF negative) cells were obtained from ATCC (American Type Culture Collection) and maintained in DMEM: F12 (1:1), high glucose (Corning) supplemented with 10% heat-inactivated fetal bovine serum (ThermoScientific), 1× Penicillin/Streptomycin (Corning) and 2 mmol glutamax (Thermo Fisher Scientific). To generate cells that stably expressing human tissue factor (HEK293T-humanTF) or cynomolgus tissue factor (HEK293T-cynoTF), HEK293T cells were transfected with plasmid vectors that contain the corresponding protein sequence and stable clones were selected with puromycin.
(§2) For a fluorescence-activated cell sorting (FACS) cell-binding assay, cells were collected by Accutase and counted by the Vi-CELL Cell Viability Analyzersharvested and, then re-suspended in FACS buffer (DPBS buffer supplemented with 1% bovine serum albumin). A total of 200,000 cells in 100 μL were incubated on ice with 100 μL of anti-TF antibodies in each well of a 96-well plate. Cells were washed twice with ice-cold FACS buffer and then incubated on ice for 60 mins with 5 μg/mL Alexa 647-labeled donkey anti-human Fc antibody (Jackson ImmunoResearch). Unstained cells and cells stained with secondary antibody alone were used as controls. Cells were washed twice with FACS buffer and analyzed using a BD FACS Canto system. Geometric mean fluorescence intensities (MFI) were fitted using non-linear regression analysis with one site specific binding equation on GraphPad Prism (GraphPad Software; La Jolla, CA).

[2] = target: T2, human tissue factor on cells (human, UniProt P13726 33-295); test: flow cytometry on HEK293T-humanTF cells, one-site fit of MFI
T2 construct: cell-surface TF, transfected (HEK293T-humanTF) or endogenous (tumour lines, keratinocytes); the cell line is named under assay; also called HEK293T-humanTF; TF on BxPC3, primary human keratinocytes, NCI-H292, HCC1954, NCI-H1975
Excerpt: as §1, §2

[3] = target: T2, human tissue factor on cells; test: flow cytometry on primary human keratinocytes, one-site fit of MFI
Experimental: To evaluate antibody binding activity of the anti-TF antibodies on the adult primary keratinocytes, a total of 100,000 keratinocytes per well were incubated on ice with serial dilutions of anti-TF antibodies in FACS buffer (PBS buffer supplemented with 1% bovine serum albumin, 0.05% sodium azide) for 60 minutes. Cells were washed twice with ice-cold FACS buffer and then incubated with 5 microgram/mL Alexa 647 labeled donkey anti-human Fc antibody (Jackson ImmunoResearch, West Grove, PA) on ice for another 60 minutes. Unstained cells and cells stained with secondary antibodies alone were used as controls. Samples were then washed twice using FACS buffer and analyzed using an Attune flow cytometer (Thermo Fisher). Geometric mean fluorescence intensities were fitted using non-linear regression analysis with one site specific binding equation on GraphPad Prism.

[4] = target: T3, human tissue factor (human TF, Lake Pharma) (human, UniProt P13726 33-251, limits assumed); test: Biacore SPR kinetics, antibody captured on anti-Fc, 1:1 Langmuir fit
T3 construct: bought recombinant antigen; also called CD142
Experimental: (§3) Anti-Fc polyclonal antibodies were immobilized onto a CM4 chip (Cytiva #BR100534) using amine coupling chemistry (Human Antibody Capture Kit, Cytiva #BR100839). The immobilization steps were carried out at a flow rate of 25 μL/min in 1×HBS-EP+buffer (Cytiva #BR100669). The sensor surfaces were activated for 7 min with a mixture of N-hydroxysuccinimide (NHS, 0.05 M) and 1-ethyl-3-(3-dimethylaminopropyl)-carbodiimide (EDC, 0.2 M). The anti-Fc polyclonal antibodies were injected over all 4 flow cells at a concentration of 25 μg/mL in 10 mM sodium acetate, pH 4.5, for 7 min. Ethanolamine (1 M, pH 8.5) was injected for 7 min to block any remaining activated groups.
(§4) Off-rate and kinetic binding experiments were performed at 25° C. using 1×HBS-EP+buffer. Antibodies were injected over the anti-Fc surface at a concentration of 3 μg/mL for 12 seconds at a flow rate of 10 μL/min on flow cells 2, 3 and 4, followed by a buffer wash for 30 seconds at the same flow rate. Single point off-rate analysis was carried out using an antigen concentration of 100 nM. […] After capturing ligand (antibody) on the anti-Fc surface, the analyte (human TF, Lake Pharma; cynomolgus TF, Sino Bio #90885-C08H; mouse TF, R&D Systems #3178-PA) was bound for 180 seconds, followed by a 420 second dissociation phase at a flow rate of […]. Between each ligand capture and analyte binding cycle, regeneration was carried out using 2 injections of 10 mM glycine pH 2.0 for 30 seconds at 30 μL/min, followed by a 30 second buffer wash step.
(§5) The data were fit with the Biacore T200 Evaluation software, using a 1:1 Langmuir binding model. KD (affinity, nM) was determined as a ratio of the kinetic rate constants calculated from the fits of the association and dissociation phases.

[5] = target: T4, cynomolgus tissue factor (cynomolgus TF, Sino Bio #90885-C08H) (cynomolgus monkey, UniProt P13726 33-251 (human entry)); test: as above
T4 construct: bought recombinant antigen; also called cyno TF
T4 chain: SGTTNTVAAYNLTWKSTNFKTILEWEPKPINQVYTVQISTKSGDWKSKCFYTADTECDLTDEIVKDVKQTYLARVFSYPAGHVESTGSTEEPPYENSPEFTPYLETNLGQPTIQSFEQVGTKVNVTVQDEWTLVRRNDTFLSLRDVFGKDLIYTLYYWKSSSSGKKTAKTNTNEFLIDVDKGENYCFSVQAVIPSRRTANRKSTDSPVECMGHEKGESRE
Experimental: as §3, §4, §5

T3 sequence (P13726 33-251 limits assumed): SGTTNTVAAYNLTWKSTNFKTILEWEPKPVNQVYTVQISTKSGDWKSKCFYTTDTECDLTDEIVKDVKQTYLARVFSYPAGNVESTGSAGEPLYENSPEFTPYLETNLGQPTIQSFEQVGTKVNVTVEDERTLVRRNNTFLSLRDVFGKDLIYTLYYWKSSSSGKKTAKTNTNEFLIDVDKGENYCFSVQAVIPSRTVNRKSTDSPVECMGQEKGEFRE

B1: mAb 37: aTF_2842-B01_Hc3_Y180/F404TAG pAzMeF; aTF_2842-B01_Lc2 (antibody, IgG1, V domains shown)
VH: EVQLVESGGGLVQPGGSLRLSCAASGFSISSYDMSWVRQAPGKGLEWIGIIGSNGRTYYPDSVKGRFTISRDNSKNTVTLQMNSLRAEDTAVYYCARGLYDGTGNIWGQGTLVTVSS
VL: ELVMTQSPPTLSLSPGERVTLSCRASQSVYGNNWLSWYQQKPGQAPRLLIYGASKLATSIPARFSGSGSGTQFTLTISSLQPEDFAVYYCQGTYYSGDWYFAFGQGTKVEIKR
modifications: pAzMeF at Y180 and F404 (EU), * in the sequence
notes: unconjugated full-length IgG1/kappa, cell-free expressed; also called 2842-B01 HC3/LC2; 2842-B01-HC3/LC2 Y180/F404
Bmax (MFI) [1]: 493000 MFI | Kd [1]: 3.9 nM | Bmax (MFI) [2]: 334000 MFI | Kd [2]: 3.9 nM | Kd [3]: 24 nM | Kd [4]: 7.3 nM | koff [4]: 0.000418 s⁻¹ | kon [4]: 57200 M⁻¹ s⁻¹ | Kd [5]: 15.6 nM | koff [5]: 0.00113 s⁻¹ | kon [5]: 72400 M⁻¹ s⁻¹
